Data reported in PMC10097602, “Ubiquitin-like conjugation by bacterial cGAS enhances anti-phage defence” (Nature, 2023).
Substitutions are numbered along the chain they refer to. Names may count otherwise.

T1: Vs.4 (Tequatrovirus T4, UniProt P13314)
T1 construct: gene acb2; residues 1-88, full length; SUMO fusion with His6, tag cleaved by ULP1; E. coli BL21(DE3)pLysS
T1 sequence (P13314 1-88): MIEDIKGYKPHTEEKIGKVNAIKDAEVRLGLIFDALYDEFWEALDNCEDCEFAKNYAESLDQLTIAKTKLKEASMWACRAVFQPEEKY

B1: Vs.4 from phage T4 (residues 1-88) (natural protein, UniProt P13314 1-88, looked up)
chain: T1 sequence (P13314 1-88)
notes: Vs.4, protein of unknown function of bacteriophage T4, residues 1-88; T4 proteome UniProt UP000009087; Hexamer by crystal structure and analytical ultracentrifugation; also called Vs.4 (WT); wild-type Vs.4; source: E. coli BL21(DE3)pLysS, purified (Ni-NTA, SUMO tag cleaved with ULP1, size-exclusion chromatography)
B2: Vs.4 F33A (natural protein, phage T4, UniProt P13314 1-88, looked up)
chain: T1 sequence (P13314 1-88) with F33A
notes: Vs.4 of bacteriophage T4, residues 1-88, with F33A; source: E. coli BL21(DE3)pLysS, purified (Ni-NTA, SUMO tag cleaved with ULP1, size-exclusion chromatography)

Legend:
Vs.4 = target: T1, Vs.4; test: isothermal titration calorimetry (VP-ITC), global fit of three titrations; format: binding
cGAMP = test: ITC; settings: for Kd: parent: 31.4 nM; for other: ΔH: parent: -24.9 kcal/mol; for other: ΔS: parent: -50.6
[1] = target: the molecule itself; test: crystal structure; Vs.4 with 3'3'-cGAMP (1.2:1 molar ratio), hanging drops, 7% PEG8000, 0.1 M imidazole pH 6.3, 0.2 mM calcium acetate, room temperature; quaternary structure confirmed with PISA
[2] = target: the molecule itself; test: AUC; sedimentation velocity, 15 µM of each protein in 20 mM Tris and 150 mM NaCl; hexamer
[3] = high incompetent fraction (0.496)

Molecule | Kd (cGAMP) [nM] | other: ΔH (cGAMP) [kcal/mol] | other: ΔS (cGAMP) [cal/mol·K] | further results
Nc1nc2c(ncn2[C@@H]2O[C@@H]3COP(=O)(O)O[C@H]4[C@@H](O)[C@H](n5cnc6c(N)ncnc65)O[C@@H]4COP(=O)(O)O[C@H]3[C@H]2O)c(=O)[nH]1 [3′3′-cGAMP] |  |  |  | Kd (Vs.4): 31.4 nM
Vs.4 from phage T4 (residues 1-88) (from UniProt P13314) F82A | 859 | -23.3 | -51.6 | 
Vs.4 from phage T4 (residues 1-88) (from UniProt P13314) Y8A | 158 | -10.6 | -5 | 
Vs.4 from phage T4 (residues 1-88) (from UniProt P13314) A77Y | 1100 | -5 | 10.3 | 
Vs.4 from phage T4 (residues 1-88) (from UniProt P13314) F33A |  |  |  | Kd (cGAMP; [3]): 25.3 nM; other: ΔH (cGAMP; [3]): -24.3 kcal/mol; other: ΔS (cGAMP; [3]): -48.8 cal/mol·K
B1 |  |  |  | stoichiometry N [1]: 6
B2 |  |  |  | binding result [2]: binds
